Measured values taken from US20150258194A1, “MODULATING TRANSENDOTHELIAL MIGRATION AND RECRUITMENT OF GRANULOCYTES BY MODULATING C-MET PATHWAY” (VIB VZW, priority 2012, published 2015).

Assays:
LLC cancer cells = test: Cytotoxicity assay: LLC cancer cell killing by neutrophils; assay type: cell-based, mouse
Procedure: Cytotoxicity assay: LLC-shMet were transduced with a luciferase-expressing lentivirus (EXhLUC-Lvl 14 from GeneCopoeia); 104 LLC were seeded in DMEM 10% FBS in 96-multiwell. After 4 h, 0.2×10^6 neutrophils purified from the blood of LLC-tumor bearing mice or sorted from LLC-tumors were co-cultured with the LLC in DMEM 2% FBS for 4 hours at 37° C., with or without 100 ng/ml HGF or 1 mM L-NMMA (SIGMA). After washing, adherent cells were lysate in 0.2% Tryton 1 mM DTT.

[1] = system: Met expression in neutrophils; test: Q-PCR / Western blot of Met expression in mouse neutrophils; assay type: cell-based; conditions: naïve mouse neutrophils
Procedure: Western blot: 2×10^6 bone marrow neutrophils from WT mice were stimulated with TCM, CCM, 100 ng/ml of murine TNF-α (or mock medium 0% FBS or 10% FBS as control) for 20 hours at 37° C. For the co-culture with HUVEC, a monolayer of HUVEC was stimulated for 4 hours with 5 ng/ml IL-1 at 37° C., and washed before neutrophil seeding. After 20 hours of stimulation, neutrophils were collected using Cell Dissociation Buffer, Enzyme Free, PBS-Based (Gibco). Cells were washed in PBS, lysed in 15 μl of a protease inhibitor mixture and incubated for 15 minutes on ice. The stock solution was obtained by dissolving one tablet of Complete Mini protease inhibitor mixture (CI, Roche) in 5 ml of PBS with 2 mM diisopropyl fluorophosphate (DFP; Acros Organics, Morris Plains, N.J.). After addition of an equal amount of 2×SDS sample buffer supplemented with 4% 2-mercaptoethanol, the lysates were boiled for 15 minutes and kept at -80° C. until use. 30×10^6 neutrophils purified from healthy volunteer blood and stimulated with A549-CM, 100 ng/ml of human TNF-α, 50 ng/ml LPS (or mock medium 10% FBS as control) for 20 hours. Cells were incubated with DFP 2.7 mM for 15' at 4° C., collected and washed in PBS, DFP 2.7 mM, CI 1X, and lysed in hot […] buffer (25% SDS 10%, 25% Tris-HCl pH 6.8) at 96° C. for 10'. Cell lysates were sonicated, cleared and quantified. 6× loading buffer was added before loading on the gel. The following antibodies were used: mouse anti-mouse Met (clone 3D4; Invitrogen), mouse anti-mouse β-actin (Santa Cruz), rabbit anti-human Met (clone D1C2-XP; Cell Signaling), HRP-conjugated anti-beta-tubulin (Abcam). Signal was visualized by Enhanced Chemiluminescent Reagents (ECL, Invitrogen) or West Femto by Thermo Scientific according to the manufacturer's instructions. Quantitative RT-PCR: for mRNA analysis, 1×10^5 or 3×10^5 mouse or human neutrophils, respectively, were incubated in normoxic (21% oxygen) or hypoxic condition (1% oxygen) or stimulated with TCM (plus 50 μg/ml Enbrel or human IgG when indicated), CCM, A549-CM, 100 ng/ml of murine or human TNF-α, 50 ng/ml LPS, or mock medium in 96-multiwell for 4 hours at 37° C. 2×10^5 HUVEC were seeded in 24-multiwell coated with 0.1% gelatin and stimulated with 5 ng/ml IL-1 in DMEM 10% FBS for 4 hours at 37° C. Cells were washed in PBS, collected in RLT buffer (QIAGEN®) and kept at -80° C. RNA was extracted with an RNase Micro kit (QIAGEN®) according to manufacturer's instructions. Reverse transcription to cDNA was performed with the SuperScript III Reverse Transcriptase (Invitrogen) according to manufacturer's protocol. […]

neutrophils [2] = test: Transmigration and migration assay of neutrophils; assay type: cell-based, mouse
Procedure: Transmigration and Migration Assay: For the transmigration assay, 2×10^5 HUVEC were seeded on 3 μm polycarbonate membrane (Transwell; Costar) previously coated with 0.1% gelatin in M199 20% FBS. After 12 h, HUVEC were stimulated for 4 hours at 37° C. in DMEM 10% FBS with 5 ng/ml IL-1 and then washed. 5×105 WBC were seeded on top of the endothelial monolayer, while mock medium (+/− decoy Met), TCM (+/− decoy Met) or 50 ng/ml murine HGF was added in the bottom. After 2 hours at 37° C., transmigrated cells were collected from the lower chambers and from the bottom part of the filter with cold PBS 0.5% EDTA. Cells were stained and Ly6G+ cells quantified as above. In the migration assays WBC were seeded directly on top of 3 μm polycarbonate porous membranes.

neutrophils [3] = test: Nitric oxide measurement by FACS (DAF-FM) in neutrophils; assay type: cell-based, mouse; conditions: HGF 100 ng/ml
Procedure: Nitric oxide measurement by FACS: neutrophils isolated from the blood of WT or KO LLC tumor bearing mice were co-cultured for 4 hours with LLC shMet, washed, and resuspended in PBSHepes 20 mM, incubated for 10′ with 5 μM DAF-FM diacetate (Molecular probes) in the absence or presence of HGF (100 ng/ml) at 37° C., washed and analyzed by FACS.

neutrophils [4] = test: Adhesion assay: neutrophil adhesion to HUVEC; assay type: cell-based, mouse
Procedure: Adhesion Assay: 4×10^4 HUVEC were seeded in M199 20% FBS in 96-multiwell previously coated with 0.1% gelatin. After 12 h, HUVEC were stimulated with 5 ng/ml IL-1 in DMEM 10% FBS at 37° C. After 4 hours the endothelial monolayer was thoroughly washed and 2.5×105 WBC were seeded on top, with or without murine HGF (50 ng/ml). After 15′ non-adherent cells were washed out whereas adherent cells were detached by using Cell Dissociation Buffer, Enzyme Free, PBS-Based (Gibco). Cells were stained with Ly6G-APC, washed and resuspended in PBS-BSA 0.1% with unlabeled counting beads (BD Bioscience) and quantified with FACS Canto II (BD Bioscience).

Ly6G+ cells = test: Air pouch assay: neutrophil exudation into subcutaneous air pouches; assay type: in vivo; conditions: 200 ng/mouse, 4 hours; for recruitment of Ly6G+ cells into air pouch: WT→WT mice
Procedure: Air Pouch Assay: to create subcutaneous air pouches, bone marrow transplanted WT and KO mice were injected with 3 ml of sterile air by dorsal subcutaneous injection with a butterfly 23G needle on day 0 and on day 3. On day 6, 200 ng/mouse of CXCL1 or murine HGF in 0.5 ml PBS-Heparin or PBS-Heparin as control, were injected in the dorsal camera created with the previous injection. After 4 hours, inflammatory cells were harvested by washing the pouch with 8 ml of PBS. Cells were stained with Ly6G-APC, washed and resuspended in PBS-BSA 0.1% with unlabeled counting beads and quantified with FACS Canto II (BD Bioscience).

β2-integrin = test: Soluble ICAM-1 binding assay and co-immunoprecipitation of active β2-integrin; assay type: cell-based

Question: `CNC(=N)NCCC[C@H](N)C(=O)O` [L-NMMA, reference compound] was tested. Which “HGF-induced cytotoxicity of neutrophils” value (LLC cancer cells; HGF 100 ng/ml plus 1 mM L-NMMA) did it give?
Answer: decreased HGF-induced cytotoxicity to the level of Met KO neutrophils

Question: What about the “cytotoxicity of intratumoral WT neutrophils against cancer cells” value (LLC cancer cells; neutrophils sorted from LLC tumors, 1 mM L-NMMA) of the same molecule?
Answer: decreased the cytotoxicity of WT neutrophils to the levels of KO neutrophils

Question: With TNF-a as the molecule, how does the “upregulation of MET at RNA and protein levels” value [1] read?
Answer: able to upregulate MET

B1: decoy MET: soluble HGF-trap consisting of the extracellular portion of MET (protein, UniProt P08581 25-932, looked up)
extracellular domain: ECKEALAKSEMNVNMKYQLPNFTAETPIQNVILHEHHIFLGATNYIYVLNEEDLQKVAEYKTGPVLEHPDCFPCQDCSSKANLSGGVWKDNINMALVVDTYYDDQLISCGSVNRGTCQRHVFPHNHTADIQSEVHCIFSPQIEEPSQCPDCVVSALGAKVLSSVKDRFINFFVGNTINSSYFPDHPLHSISVRRLKETKDGFMFLTDQSYIDVLPEFRDSYPIKYVHAFESNNFIYFLTVQRETLDAQTFHTRIIRFCSINSGLHSYMEMPLECILTEKRKKRSTKKEVFNILQAAYVSKPGAQLARQIGASLNDDILFGVFAQSKPDSAEPMDRSAMCAFPIKYVNDFFNKIVNKNNVRCLQHFYGPNHEHCFNRTLLRNSSGCEARRDEYRTEFTTALQRVDLFMGQFSEVLLTSISTFIKGDLTIANLGTSEGRFMQVVVSRSGPSTPHVNFLLDSHPVSPEVIVEHTLNQNGYTLVITGKKITKIPLNGLGCRHFQSCSQCLSAPPFVQCGWCHDKCVRSEECLSGTWTQQICLPAIYKVFPNSAPLEGGTRLTICGWDFGFRRNNKFDLKKTRVLLGNESCTLTLSESTMNTLKCTVGPAMNKHFNMSIIISNGHGTTQYSTFSYVDPVITSISPKYGPMAGGTLLTLTGNYLNSGNSRHISIGGKTCTLKSVSNSILECYTPAQTISTEFAVKLKIDLANRETSIFSYREDPIVYEIHPTKSFISGGSTITGVGKNLNSVSVPRMVINVHEAGRNFTVACQHRSNSEIICCTTPSLQQLNLQLPLKTKAFFMLDGILSKYFDLIYVHNPVFKPFEKPVMISMGNENVLEIKGNDIDPEAVKGEVLKVGNKSCENIHLHSEAVLCTVPNDLLKLNSELNIEWKQAISSTVLGKVIVQPDQNFT
modifications: extracellular domain
Question: Which “TCM-induced transendothelial migration of Met KO neutrophils” value (neutrophils [2]; Met KO neutrophils, TCM, decoy Met) does the source give for B1 here?
Answer: did not further impair the migration of Met KO neutrophils

Question: And the “TCM-promoted transendothelial migration of WT neutrophils” value (neutrophils [2]; WT neutrophils, TCM, decoy Met 0.5 ng/μl)?
Answer: abated this effect

B2: HGF: Hepatocyte Growth Factor, the ligand of the MET tyrosine kinase receptor (protein)
chain: QKKRRNTLHEFKKSAKTTLTKEDPLLKIKTKKVNSADECANRCIRNRGFTFTCKAFVFDKSRKRCYWYPFNSMSSGVKKGFGHEFDLYENKDYIRNCIIGKGGSYKGTVSITKSGIKCQPWNSMIPHEHSFLPSSYRGKDLQENYCRNPRGEEGGPWCFTSNPEVRYEVCDIPQCSEVECMTCNGESYRGPMDHTESGKTCQRWDQQTPHRHKFLPERYPDKGFDDNYCRNPDGKPRPWCYTLDPDTPWEYCAIKTCAHSAVNETDVPMETTECIQGQGEGYRGTSNTIWNGIPCQRWDSQYPHKHDITPENFKCKDLRENYCRNPDGAESPWCFTTDPNIRVGYCSQIPKCDVSSGQDCYRGNGKNYMGNLSKTRSGLTCSMWDKNMEDLHRHIFWEPDASKLNKNYCRNPDDDAHGPWCYTGNPLIPWDYCPISRCEGDTTPTIVNLDHPVISCAKTKQLRVVNGIPTQTTVGWMVSLKYRNKHICGGSLIKESWVLTARQCFPARNKDLKDYEAWLGIHDVHERGEEKRKQILNISQLVYGPEGSDLVLLKLARPAILDNFVSTIDLPSYGCTIPEKTTCSIYGWGYTGLINADGLLRVAHLYIMGNEKCSQHHQGKVTLNESELCAGAEKIGSGPCEGDYGGPLICEQHKMRMVLGVIVPGRGCAIPNRPGIFVRVAYYAKWIHKVILTYKL
Question: Which results are given for B2?
Answer: cytotoxicity of KO neutrophils (LLC cancer cells; Met KO circulating neutrophils with LLC, HGF 100 ng/ml): not; cytotoxicity of WT neutrophils (LLC cancer cells; WT circulating neutrophils with LLC, HGF 100 ng/ml): augmented; NO release of KO neutrophils (neutrophils [3]; Met KO circulating neutrophils with LLC): not; NO release of WT neutrophils (neutrophils [3]; WT circulating neutrophils with LLC): augmented; upregulation of MET at RNA and protein levels [1]: not; adhesion of Met KO neutrophils to an activated endothelium (neutrophils [4]; Met KO neutrophils, HUVEC (IL-1)): did not modify the behavior of KO cells; increase of adhesion of WT neutrophils to an activated endothelium (neutrophils [4]; WT neutrophils, HUVEC (IL-1), HGF 50 ng/ml): 48%; neutrophil adhesion to nonactivated ECs (neutrophils [4]; nonactivated ECs): not affected; transendothelial migration of Met KO neutrophils (neutrophils [2]; Met KO neutrophils, inflamed-like endothelium): completely lost this response to HGF; transendothelial migration (chemotaxis) of WT neutrophils (neutrophils [2]; WT neutrophils, inflamed-like endothelium, HGF 50 ng/ml): promoted their chemotaxis through an inflamed-like endothelium; migration of neutrophils through a naked porous membrane or a non-activated endothelium (neutrophils [2]; no activated endothelium): did not influence the migration of neutrophils; recruitment of neutrophils into air pouch in KO→WT mice (Ly6G+ cells): completely abolished; recruitment of Ly6G+ cells into air pouch (Ly6G+ cells): equally good in recruiting Ly6G+ cells; percentage of granulocytes bound to ICAM-1 (β2-integrin; soluble ICAM-1 binding assay): increases the percentage of granulocytes bound to ICAM-1; active β2-integrin (immunoprecipitation) (β2-integrin; upon HGF stimulation): more active Iβ2-integrin

B3: CXCL1: well-known neutrophil chemoattractant, positive control of neutrophil migration (protein, UniProt P12850 25-96, looked up)
Growth-regulated alpha protein: APIANELRCQCLQTMAGIHLKNIQSLKVLPSGPHCTQTEVIATLKNGREACLDPEAPLVQKIVQKMLKGVPK
Question: What does the source list for B3?
Answer: recruitment of neutrophils into air pouch in KO→WT mice (Ly6G+ cells): did not change; recruitment of Ly6G+ cells into air pouch (Ly6G+ cells): equally good in recruiting Ly6G+ cells
